Measurements from paper PMC10325903, “Prediction of cooperative homeodomain DNA binding sites from high-throughput-SELEX data”.

Target: Bsx HD fragment (UniProt Q810B3 84-193)
Test: EMSA; EMSA, 34 nM IRDye700 probe, room temperature 20 min, 4% polyacrylamide gel 150 V 2 h; binding buffer as in cited ref 35 (not given)
Details: protein: recombinant; tags: N-terminal 6xHis (pET-14b or pET-14P; may be cleaved); chain copies: 2; label: 5' IRDye700 on bottom strand; blunt

Chain of Bsx HD fragment (Q810B3 84-193): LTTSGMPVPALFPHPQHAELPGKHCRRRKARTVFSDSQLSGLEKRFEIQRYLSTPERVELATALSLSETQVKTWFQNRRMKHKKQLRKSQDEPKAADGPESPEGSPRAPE

| Binder | cooperativity factor (tau) [Tau cooperativity factor] |
| --- | --- |
| Bsx_SELEX_1 (dsDNA) DNA 1: TATGAAATCAATTATCTCATTAAGTTCGTAGTGCGGGCGTGGCT DNA 2: AGCCACGCCCGCACTACGAACTTAATGAGATAATTGATTTCATA | 9.8 ± 1 |
| Bsx_SELEX_1+1 (dsDNA) DNA 1: TATGAAATCAATTATCGTCATTAAGTTCGTAGTGCGGGCGTGGCT DNA 2: AGCCACGCCCGCACTACGAACTTAATGACGATAATTGATTTCATA | 0.9 ± 0.3 |
